The Kd is the concentration at which binding is half-saturated. Read a low Kd as higher affinity.

From patent publication US20100022453A1 (UNIVERSITY OF ROCHESTER, published 2010) come the findings set out here.

B2: rat NgR1 (Nogo-66 receptor), full-length, expressed on cells (receptor)
chain: CPGACVCYNEPKVTTSCPQQGLQAVPTGIPASSQRIFLHGNRISYVPAASFQSCRNLTILWLHSNALAGIDAAAFTGLTLLEQLDLSDNAQLRVVDPTTFRGLGHLHTLHLDRCGLQELGPGLFRGLAALQYLYLQDNNLQALPDNTFRDLGNLTHLFLHGNRIPSVPEHAFRGLHSLDRLLLHQNHVARVHPHAFRDLGRLMTLYLFANNLSMLPAEVLVPLRSLQYLRLNDNPWVCDCRARPLWAWLQKFRGSSSEVPCNLPQRLAGRDLKRLAASDLEGCAVASGPFRPFQTNQLTDEELLGLPKCCQPDAADKASVLEPGRPASAGNALKGRVPPGDTPPGNGSGPRHINDSPFGTLPGSAEPPLTALRPGGSEPPGLPTTGPRRRPGCSRKNRTRSHCRLGQAGSGSSGTGDAEGS
notes: also called Nogo receptor NgR1; NgR1 in COS cells
B5: rat NgR2, full-length, expressed on COS-7 cells (receptor)
chain: CPMLCTCYSSPPTVSCQANNFSSVPLSLPPSTQRLFLQNNLIRSLRPGTFGPNLLTLWLFSNNLSTIYPGTFRHLQALEELDLGDNRHLRSLEPDTFQGLERLQSLHLYRCQLSSLPGNIFRGLVSLQYLYLQENSLLHLQDDLFADLANLSHLFLHGNRLRLLTEHVFRGLGSLDRLLLHGNRLQGVHRAAFHGLSRLTILYLFNNSLASLPGEALADLPALEFLRLNANPWACDCRARPLWAWFQRARVSSSDVTCATPPERQGRDLRTLRDTDFQACPPPTPTRPGSRARGNSSSNHLYGVAEAGAPPADPSTLYRDLPAEDSRGRQGGDAPTEDDYWGGYGGEDQRGEQTCPGAAC
notes: also called NgR2 in COS cells

Assay [1] has as its target B5. Briefly: AP-ligand binding to NgR2 on COS cells. Here is the method:
(§1) Techniques for ligand binding to NgR1 on COS cells is described in detail in Venkatesh et al. (2005) Journal of Neuroscience 25:808-22, which is incorporated herein by reference in its entirety at least for the methods taught therein. Briefly, receptor constructs were expressed transiently in COS-7 cells in 24-well plates coated with poly-D-lysine (PDL; 50 μg/ml), using Lipofectamine 2000. At 24 h after transfection the cells were rinsed and incubated for 75 min at ambient temperature with alkaline phosphatase tagged FGF1, FGF2, FGF4, FGF8, FGF9, and FGF21. To monitor bound ligand, plates were developed with NBT/BCIP substrate; the color reaction was stopped by two rinses in PBS. For quantification of ligand binding the cells were processed as described above; after ligand incubation the cells were rinsed in HBHA and lysed in 20 mM Tris, pH 8.0, 0.1% Triton X-100. The lysates were incubated at 65° C. for 60 min and spun at 10,000×g for 5 min. The relative AP activity in supernatants was normalized to cell surface receptor expression, using anti-myc (1:1000), anti-NgR1 (1:1000), anti-NgR2 (1:1000), or anti-NgR3 (1:200) antibodies, as described previously (Giger et al., Neuron 21:1079-92, 1998). Scatchard plot analysis was performed analogous to a previous study (Kolodkin et al., Cell 90:753-62, 1997).

Assay [2] has as its target B2. Briefly: AP-ligand binding to NgR1 on COS cells. Here is the method: as §1
Assay [3] addresses T1, AP-sNgR1^CT+stalk (Phe278-Glu445) (human; rat).
T1 construct: Expressed in HEK293T cells and used as conditioned supernatant
Briefly: AP-fusion protein binding to transfected COS-7 cells; (-) = no binding above background.

Assay [4] deals with T2, AP-FGF9 (mouse) (human; mouse, UniProt P54130 4-208). Briefly: AP-ligand binding to NgR1 on COS-7 cells. Here is the method: as §1
For assay [5], the target named is B2. Briefly: AP-ligand binding to NgR1 on COS-7 cells. The protocol:
as §1

The target of assay [6] is T2, AP-FGF9 (mouse). Briefly: AP-ligand binding to NgR2 on COS-7 cells. Here is the method: as §1
In assay [7] the target is T3, NgR1-Fc (mouse NogoR/Fc, R&D Systems) (mouse, UniProt Q99PI8 27-447).
T3 construct: also called soluble NgR1-Fc
T3 sequence (looked up): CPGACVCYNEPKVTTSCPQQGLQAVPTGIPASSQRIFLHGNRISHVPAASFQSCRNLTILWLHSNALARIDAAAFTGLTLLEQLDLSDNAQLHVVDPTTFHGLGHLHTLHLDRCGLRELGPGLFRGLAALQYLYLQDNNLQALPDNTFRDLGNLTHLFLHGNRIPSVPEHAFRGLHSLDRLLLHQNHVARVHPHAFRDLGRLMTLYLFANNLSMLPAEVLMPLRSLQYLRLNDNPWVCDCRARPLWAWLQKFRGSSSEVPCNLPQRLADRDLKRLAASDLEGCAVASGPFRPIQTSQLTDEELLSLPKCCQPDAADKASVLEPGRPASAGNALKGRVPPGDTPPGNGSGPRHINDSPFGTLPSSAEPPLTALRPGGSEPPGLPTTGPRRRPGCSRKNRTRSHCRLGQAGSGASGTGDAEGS
Briefly: affinity precipitation with NgR1-Fc on Protein A/G beads, anti-AP Western blot. Here is the method:
NgR1-Fc (0.5 μg, R&D Systems) and AP-tagged ligands (1.5 nM final conc.) were mixed in DMEM containing 0.1% BSA and protease inhibitor cocktail and were incubated at 4° C. for 2 h. AP-ligands bound to NgR1-Fc were precipitated with Protein A/G agarose beads after 2 h at 4° C. Samples were rinsed extensively in washing buffer (20 mM Tris-HCl, pH 7.5, 150 mM NaCl, 1% NP40, 5 mM EDTA) and analyzed by Western blotting using an anti-AP antibody. For cross-linking experiments, NgR1-Fc, FGFR1D(IIIb)/Fc, TROY-Fc, or ephrinB3-Fc (R&D Systems) (each at 13 nM), were incubated with 40 nM ¹²⁵I-FGF2 (specific activity: ˜50 μCi/μg, MP Biochem.) with or without the indicated concentrations of cold FGF2 or insulin for 2 h at room temperature in PBS. Cross-linking was initiated by adding BS³ (bis[sulfosuccinimidyl]suberate, Pierce, Rockford, Ill.) to a final concentration of 2 mM and incubating for 30 min at room temperature. The reaction was stopped by adding 2 μl of 1 M Tris-HCl (pH 7.4) and protein complexes were analyzed by SDS-PAGE. Gels were subsequently fixed, dried, and subjected to autoradiography.

Assay [8] addresses B2. Briefly: Scatchard plot analysis of AP-ligand binding to NgR1 on COS-7 cells. The protocol: as §1, with “The relative AP activity in supernatants was normalized to cell surface receptor expression, using anti-myc (1:1000), anti-NgR1 (1:1000), anti-NgR2 (1:1000), or anti-NgR3 (1:200) antibodies, as described previously (Giger et al., Neuron 21:1079-92, 1998). Scatchard plot analysis was performed analogous to a previous study (Kolodkin et al., Cell 90:753-62, 1997).” left out
To address whether NgR1 interacts directly with FGF2, affinity precipitation experiments were performed. […] The complexes of ¹²⁵I-FGF2:NgR1-Fc and ¹²⁵I-FGF2:FGFR1-Fc run at apparent molecular weights of 220- and 250-kDa and higher molecular weight complexes containing ¹²⁵I-FGF2 are detected as well (FIG. 3C).

The target in assay [9] is B5. Briefly: AP-ligand binding to NgR2 on COS-7 cells. The protocol:
as §1

The target in assay [10] is B2. Briefly: AP-tagged ligand binding to NgR1 on COS cells. The protocol:
as §1

T1 sequence (P05187 other isoform, or with tags, fused parts or gaps): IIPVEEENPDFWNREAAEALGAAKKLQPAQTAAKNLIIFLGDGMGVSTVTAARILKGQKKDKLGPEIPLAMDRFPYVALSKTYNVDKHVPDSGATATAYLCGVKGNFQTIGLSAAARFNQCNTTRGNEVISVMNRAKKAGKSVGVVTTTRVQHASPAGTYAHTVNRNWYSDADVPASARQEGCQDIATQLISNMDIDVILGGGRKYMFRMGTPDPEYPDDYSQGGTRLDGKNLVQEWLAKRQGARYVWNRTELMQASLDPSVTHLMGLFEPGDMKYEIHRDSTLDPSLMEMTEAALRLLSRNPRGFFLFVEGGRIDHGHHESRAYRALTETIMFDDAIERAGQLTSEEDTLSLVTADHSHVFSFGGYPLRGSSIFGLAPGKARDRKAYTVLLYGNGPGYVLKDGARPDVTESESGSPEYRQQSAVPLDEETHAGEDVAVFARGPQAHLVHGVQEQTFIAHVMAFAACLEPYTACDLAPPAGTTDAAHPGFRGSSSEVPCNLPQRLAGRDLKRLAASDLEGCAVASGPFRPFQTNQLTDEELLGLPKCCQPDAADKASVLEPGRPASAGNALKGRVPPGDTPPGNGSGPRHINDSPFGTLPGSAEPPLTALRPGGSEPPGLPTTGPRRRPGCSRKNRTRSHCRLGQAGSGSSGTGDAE

B1: AP-FGF4 (mouse) (ligand, UniProt P11403 30-202, looked up)
chain: APNGTRHAELGHGWDGLVARSLARLPVAAQPPQAAVRSGAGDYLLGLKRLRRLYCNVGIGFHLQVLPDGRIGGVHADTRDSLLELSPVQRGVVSIFGVASRFFVAMSSRGKLFGVPFFTDECKFKEILLPNNYNAYESYAYPGMFMALSKNGRTKKGNRVSPTMKVTHFLPRL
notes: not shown: human placental alkaline phosphatase (AP) tag
For the molecule B1, the binding result in assay [1] is recorded as “no binding”; in assay [2], “binds”.

For the molecule B2, the binding result (in assay [3]; with AP-FGF9 (mouse) [4]) was “no binding” in each case.

B3: AP-FGF8 (mouse) (ligand, UniProt P37237-2 23-215, looked up)
chain: QVTVQSSPNFTQHVREQSLVTDQLSRRLIRTYQLYSRTSGKHVQVLANKRINAMAEDGDPFAKLIVETDTFGSRVRVRGAETGLYICMNKKGKLIAKSNGKGKDCVFTEIVLENNYTALQNAKYEGWYMAFTRKGRPRKGSKTRQHQREVHFMKRLPRGHHTTEQSLRFEFLNYPPFTRSLRGSQRTWAPEPR
notes: also called FGF8b; not shown: human placental alkaline phosphatase (AP) tag
For B3, the binding result in [1] and in assay [5] was “no binding” each time.

B4: rat NgR3 expressed on COS-7 cells (receptor, UniProt Q80WD0 25-424, looked up)
chain: CPRDCVCYPSPMTVSCQAHNFAAIPEGIPEDSERIFLQNNHITFLQQGHFSPAMVTLWIYSNNITFIAPNTFEGFVHLEELDLGDNRQLRTLAPETFQGLVKLHALYLYKCGLSSLPAGIFGGLHSLQYLYLQDNHIEYLQDDIFVDLVNLSHLFLHGNKLWSLGQGIFRGLVNLDRLLLHENQLQWVHHKAFHDLHRLTTLFLFNNSLTELQGDCLAPLVALEFLRLNGNAWDCGCRARSLWEWLRRFRGSSSVVPCATPELRQGQDLKSLRVEDFRNCTGPASPHQIKSHTLSTSDRAARKEHHPSHGASRDKGHPHGHLPGSRSGSKKPGKNCTSHRNRNQISKGSAGKELPELQDYAPDYQHKFSFDIMPTARPKRKGKCARRTPIRAPSGVQQAS
notes: whole, on cells; also called NgR3 in COS cells
B4: in [3], the binding result is on record as “no binding”.

For B5, the binding result (in [3]; in the assay with AP-FGF9 (mouse) [6]) was “no binding” each time.

B6: Nogo66-Npn1 (human Nogo66 fused to the transmembrane and cytoplasmic portion of rat neuropilin-1) on COS-7 cells (other, human;rat, UniProt Q9NQC3 1055-1120, looked up)
chain: RIYKGVIQAIQKSDEGHPFRAYLESEVAISEELVQKYSNSALGHVNCTIKELRRLFLVDDLVDSLKILITIIAMSALGVLLGAVCGVVLYCACWHNGMSERNLSALENYNFELVDGVKLKKDKLNPQSNYSEA
notes: domain: Nogo66;domain: transmembrane and cytoplasmic portion; Chimeric cell-surface form of Nogo66; also called Nogo66-Npn1 in COS cells
B6: the binding result in assay [3] is “no binding”.

B7: AP-FGF21 (mouse) (ligand, UniProt Q9JJN1 29-210, looked up)
chain: AYPIPDSSPLLQFGGQVRQRYLYTDDDQDTEAHLEIREDGTVVGAAHRSPESLLELKALKPGVIQILGVKASRFLCQQPDGALYGSPHFDPEACSFRELLLEDGYNVYQSEAHGLPLRLPQKDSPNQDATSWGPVRFLPMPGLLHEPQDQAGFLPPEPPDVGSSDPLSMVEPLQGRSPSYAS
notes: as for B1
Regarding B7, the binding result in assay [1] and in [5] was “no binding” each time.

B8: AP-FGF2 (mouse), alkaline phosphatase tagged FGF2 (ligand, UniProt P15655 10-154, looked up)
chain: PALPEDGGAAFPPGHFKDPKRLYCKNGGFFLRIHPDGRVDGVREKSDPHVKLQLQAEERGVVSIKGVCANRYLAMKEDGRLLASKCVTEECFFFERLESNNYNTYRSRKYSSWYVALKRTGQYKLGSKTGPGQKAILFLPMSAKS
notes: also called bFGF; basic FGF; not shown: human placental alkaline phosphatase (AP) tag
For B8, the binding result in assay [7] was “binds”; in assay [9], “no binding”. Besides, the Kd was 16.9 nM in [8] and roughly 10 nM in assay [10].
